Residue numbers refer to the chain shown, from its start. Names and notes keep the numbering of the source.
T1: PUF4 RNA-binding domain (Saccharomyces cerevisiae, UniProt P25339 537-888)
T1 sequence: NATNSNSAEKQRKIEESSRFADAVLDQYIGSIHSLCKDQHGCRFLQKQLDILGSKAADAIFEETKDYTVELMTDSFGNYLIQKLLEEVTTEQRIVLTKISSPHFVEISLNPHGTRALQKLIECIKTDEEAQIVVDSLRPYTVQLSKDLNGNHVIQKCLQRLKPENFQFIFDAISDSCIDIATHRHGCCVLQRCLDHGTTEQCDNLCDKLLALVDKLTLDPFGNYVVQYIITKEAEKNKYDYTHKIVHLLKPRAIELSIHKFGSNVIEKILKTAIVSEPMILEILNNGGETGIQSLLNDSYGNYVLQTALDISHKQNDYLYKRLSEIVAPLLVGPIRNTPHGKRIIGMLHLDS

B1: Id_ii_S2_P3E.3_K3.2_C3.2_[C-2T]_H3.2_A3.1_F3.1_T3.2_[T9A]_[A10T] (ssRNA)
RNA: UUUGAUUAAUAUGAUAUCGUUCUUUCUUUUAUAUAUAAUUUCUUUCUCGAUAUCAUAUUAAUCUUU
B2: Id_ii_S2_P3E.3_K3.2_C3.2_[C-2T]_[T-1C]_H3.2_A3.1_F3.1_T3.2_[T9G]_[A10T] (ssRNA)
RNA: B1 RNA with U29C, A38G
B3: Id_ii_S2_P3E.2_K3.1_C3.2_[T-1A]_H3.1_A3.1_F3.1_T3.2_[A10T] (ssRNA)
RNA: B1 RNA with U28C, U29A, A31G, A38U
B4: Id_ii_S2_P3E.3_K3.2_C3.2_[C-2T]_H3.2_A3.1_F3.1_T3.2_[T9G]_[A10T] (ssRNA)
RNA: B1 RNA with A38G
B5: Id_ii_S2_P3E.2_K3.1_C3.2_H3.1_A3.1_F3.1_T3.2_[A10C] (ssRNA)
RNA: B1 RNA with U28C, A31G, A38U, U39C
B6: Id_ii_S2_P3E.3_K3.2_C3.2_[C-2T]_[T-1G]_H3.2_A3.1_F3.1_T3.2_[A10T] (ssRNA)
RNA: B1 RNA with U29G, A38U
B7: Id_ii_S2_P3E.3_K3.2_C3.2_[C-2T]_H3.2_A3.1_F3.1_T3.2_[T9A]_[A10C] (ssRNA)
RNA: B1 RNA with U39C
B8: Id_ii_S2_P3E.2_K3.1_C3.2_H3.1_A3.1_F3.1_T3.2_[A10T] (ssRNA)
RNA: B1 RNA with U28C, A31G, A38U
B9: Id_ii_S2_P3E.3_K3.2_C3.2_[C-2T]_[T-1A]_H3.2_A3.1_F3.1_T3.2_[A10T] (ssRNA)
RNA: B1 RNA with U29A, A38U
B10: Id_ii_S2_P3E.3_K3.2_C3.2_[C-2G]_H3.2_A3.1_F3.1_T3.2_[A10G] (ssRNA)
RNA: B1 RNA with U28G, A38U, U39G
B11: Id_ii_S2_P3E.3_K3.2_C3.2_[C-2T]_[T-1A]_H3.2_A3.1_F3.1_T3.2_[T9A] (ssRNA)
RNA: B1 RNA with U29A, U39A
B12: Id_ii_S2_P3E.2_K3.1_C3.2_[T-1A]_H3.1_A3.1_F3.1_T3.2_[A10C] (ssRNA)
RNA: B1 RNA with U28C, U29A, A31G, A38U, U39C
B13: Id_ii_S2_P3E.3_K3.2_C3.2_[C-2T]_[T-1A]_H3.2_A3.1_F3.1_T3.2_[T9A]_[A10C] (ssRNA)
RNA: B1 RNA with U29A, U39C
B14: Id_ii_S2_P3E.3_K3.2_C3.2_[C-2G]_H3.2_A3.1_F3.1_T3.2_[T9C]_[A10G] (ssRNA)
RNA: B1 RNA with U28G, A38C, U39G
B15: Id_ii_S2_P3E.3_K3.2_C3.2_[C-2G]_[T-1C]_H3.2_A3.1_F3.1_T3.2_[T9A]_[A10C] (ssRNA)
RNA: B1 RNA with U28G, U29C, U39C
B16: Id_ii_S2_P3E.3_K3.2_C3.2_[C-2T]_[T-1A]_H3.2_A3.1_F3.1_T3.2_[A10C] (ssRNA)
RNA: B1 RNA with U29A, A38U, U39C
B17: Id_ii_S2_P3E.2_K3.1_C3.2_H3.1_A3.1_F3.1_T3.2_[A10G] (ssRNA)
RNA: B1 RNA with U28C, A31G, A38U, U39G
B18: Id_ii_S2_P3E.3_K3.2_C3.2_[C-2T]_[T-1A]_H3.2_A3.1_F3.1_T3.2_[T9A]_[A10T] (ssRNA)
RNA: B1 RNA with U29A
B19: Id_ii_S2_P3E.2_K3.1_C3.2_H3.1_A3.1_F3.1_T3.2_[T9A] (ssRNA)
RNA: B1 RNA with U28C, A31G, U39A
B20: Id_ii_S2_P3E.3_K3.2_C3.2_[C-2G]_[T-1C]_H3.2_A3.1_F3.1_T3.2_[A10T] (ssRNA)
RNA: B1 RNA with U28G, U29C, A38U
B21: Id_ii_S2_P3E.3_K3.2_C3.2_[C-2T]_[T-1C]_H3.2_A3.1_F3.1_T3.2_[T9C]_[A10T] (ssRNA)
RNA: B1 RNA with U29C, A38C
B22: Id_ii_S2_P3E.3_K3.2_C3.2_[C-2T]_[T-1C]_H3.2_A3.1_F3.1_T3.2_[T9C]_[A10C] (ssRNA)
RNA: B1 RNA with U29C, A38C, U39C
B23: Id_ii_S2_P3E.3_K3.2_C3.2_[C-2G]_H3.2_A3.1_F3.1_T3.2_[A10T] (ssRNA)
RNA: B1 RNA with U28G, A38U
B24: Id_ii_S2_P3E.3_K3.2_C3.2_[C-2T]_[T-1G]_H3.2_A3.1_F3.1_T3.2_[T9G]_[A10C] (ssRNA)
RNA: B1 RNA with U29G, A38G, U39C
B25: Ib_S1_P5E.1_K5.1_C5.1_H5.1_[A4C]_A5.1_F5.1_[T8C]_T5.1 (ssRNA)
RNA: UCUCUUUGUCUUACUAUCUCUU
B26: Ib_S1_P5E.1_K5.1_C5.1_H5.1_[A4G]_A5.1_F5.1_[T8C]_T5.1 (ssRNA)
RNA: UCUCUUUGUGUUACUAUCUCUU
B27: Ib_S1_P5E.1_K5.1_C5.1_H5.1_[A4T]_A5.1_F5.1_[T8G]_T5.1 (ssRNA)
RNA: UCUCUUUGUUUUAGUAUCUCUU
B28: Ib_S1_P5E.1_K5.1_C5.1_H5.1_[A4T]_A5.1_F5.1_[T8C]_T5.1 (ssRNA)
RNA: UCUCUUUGUUUUACUAUCUCUU
B29: Ib_S1_P5E.1_K5.1_C5.1_H5.1_[A4G]_A5.1_F5.1_[T8A]_T5.1 (ssRNA)
RNA: UCUCUUUGUGUUAAUAUCUCUU

What follows are binders tested against T1, PUF4 RNA-binding domain (assay: Mg; RNA-MaP; 20 mM Na-HEPES pH 7.4, 30 mM KOAc, 0.75 mM MgCl2, 0.1% Tween-20, 5% glycerol, 0.1 mg/mL BSA, 2 mM DTT; 25 C; 0.0125-409.6 nM protein). Conditions: tags: N-His6-TEV cleaved; C-SNAP kept, Cy3B-labelled; label: tethered on chip by stalled RNA polymerase.
B1 gave a Kd of 439 nM. B2 was tested, and the Kd was 1030 nM. B3 was tested, and the Kd was 1.78 nM. Binder B4 has a Kd of 253 nM. With B5 the Kd was 1.61 nM. Binder B6 has a Kd of 1.25 nM. Work on B7 yielded a Kd of 262 nM. Binder B8 has a Kd of 1.32 nM. Work on B9 yielded a Kd of 83.4 nM. In the case of B10, the Kd is reported as 22.9 nM. B11 showed a Kd of 498 nM. B12 was tested, and the Kd was 2.36 nM. Binder B13 has a Kd of 203 nM. B14 showed a Kd of 291 nM. In the case of B15, the Kd is reported as 592 nM. B16 was tested, and the Kd was 93.1 nM. B17 was tested, and the Kd was 2.02 nM. Work on B18 yielded a Kd of 247 nM. Work on B19 yielded a Kd of 2.73 nM. Work on B20 yielded a Kd of 86.4 nM. With B21 the Kd was 88 nM. B22 was tested, and the Kd was 228 nM. Work on B23 yielded a Kd of 9.18 nM. For B24, the Kd was 2.63 nM. In the case of B25, the Kd is reported as 86.7 nM. B26 showed a Kd of 51.5 nM. B27 was tested, and the Kd was 70.8 nM. B28 showed a Kd of 59.6 nM. B29 was tested, and the Kd was 134 nM.
